Usually Kd stands for the free concentration of one partner at which half of the binding sites on the other are occupied at equilibrium, for simple one-to-one binding.

Drawing on paper PMC8842248, this text covers Kd for two substances.

The target in one experiment is PDE6D (Homo sapiens) (UniProt O43924). The settings on record: cited from earlier work.
The target in experiment [1] is HRAS peptide, …(OMe)-farnesyl. Kind of experiment: ITC; PDE6D (100-300 μM) in the syringe, peptides (10-30 μM) in the cell; 25 °C; 10 mM Tris pH 7.5, 150 mM NaCl, 2 mM DTT, 5% DMSO. For orientation: In ITC the heat of successive injections is recorded.
For experiment [2], the target named is KRAS WT peptide, …(OMe)-farnesyl. The experiment is described as above.

INPP5E, sequence (Q9NRR6 1-641): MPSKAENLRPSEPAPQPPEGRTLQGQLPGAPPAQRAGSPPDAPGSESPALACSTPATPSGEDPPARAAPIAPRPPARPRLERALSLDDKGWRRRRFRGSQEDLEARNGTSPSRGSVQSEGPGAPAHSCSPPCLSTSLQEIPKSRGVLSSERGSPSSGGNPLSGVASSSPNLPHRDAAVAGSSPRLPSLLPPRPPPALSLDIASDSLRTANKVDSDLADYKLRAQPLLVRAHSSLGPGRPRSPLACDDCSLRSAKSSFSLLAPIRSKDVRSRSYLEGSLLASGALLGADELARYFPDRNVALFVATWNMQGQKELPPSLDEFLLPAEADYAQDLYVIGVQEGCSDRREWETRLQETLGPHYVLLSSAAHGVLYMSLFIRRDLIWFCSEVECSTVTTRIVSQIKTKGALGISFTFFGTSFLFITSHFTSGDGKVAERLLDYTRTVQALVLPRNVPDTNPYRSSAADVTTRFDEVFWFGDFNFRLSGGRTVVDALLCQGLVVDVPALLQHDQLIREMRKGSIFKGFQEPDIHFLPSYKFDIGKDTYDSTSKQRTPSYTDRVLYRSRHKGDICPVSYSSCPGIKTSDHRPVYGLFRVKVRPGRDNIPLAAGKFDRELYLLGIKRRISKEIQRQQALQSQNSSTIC

As for INPP5E (from UniProt Q9NRR6), the Kd with PDE6D (Homo sapiens) is 10 nM.
In the case of “PDE6D (phosphodiesterase 6 delta), wild type, polyhistidine tag removed (from UniProt O43924 1-150) (natural protein)”, the values for the Kd in experiment [1] and in experiment [2] were 2700 nM and 1300 nM, respectively.
